The target in data set [1] is T1, Recombinant DrRecA, purified (D. radiodurans, UniProt P42443 1-363).
T1 construct: RecA of Deinococcus radiodurans, from plasmid pETrecA constructed earlier (Rajpurohit et al., 2016); His tag removed with Factor-Xa; also called pETrecA; source: E. coli BL21(DE3) pLysS, purified (Ni-chelating Sepharose, Q-sepharose, Heparin, Superdex-200)
T1 sequence (looked up): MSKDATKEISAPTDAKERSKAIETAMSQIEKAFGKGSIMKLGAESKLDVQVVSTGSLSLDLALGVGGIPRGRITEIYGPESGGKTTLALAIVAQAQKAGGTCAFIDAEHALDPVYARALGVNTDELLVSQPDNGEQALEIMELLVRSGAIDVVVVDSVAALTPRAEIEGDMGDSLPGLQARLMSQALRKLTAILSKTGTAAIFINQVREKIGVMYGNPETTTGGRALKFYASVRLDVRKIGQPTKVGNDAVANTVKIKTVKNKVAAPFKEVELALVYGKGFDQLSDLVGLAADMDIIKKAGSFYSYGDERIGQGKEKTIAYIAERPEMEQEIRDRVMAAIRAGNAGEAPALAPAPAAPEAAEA
The data set can be described thus: cross-linking; both proteins (approx. 5 μg each) mixed in HEPES buffer pH 7.6 for 10 min, 0.5% glutaraldehyde for 10 min, SDS-PAGE; with or without 1 kb dsDNA, DNase treatment. As to conditions: both partners purified.

The target of data set [2] is T2, PprA (Deinococcus radiodurans R1 (ATCC 13939), UniProt O32504 1-300).
T2 sequence: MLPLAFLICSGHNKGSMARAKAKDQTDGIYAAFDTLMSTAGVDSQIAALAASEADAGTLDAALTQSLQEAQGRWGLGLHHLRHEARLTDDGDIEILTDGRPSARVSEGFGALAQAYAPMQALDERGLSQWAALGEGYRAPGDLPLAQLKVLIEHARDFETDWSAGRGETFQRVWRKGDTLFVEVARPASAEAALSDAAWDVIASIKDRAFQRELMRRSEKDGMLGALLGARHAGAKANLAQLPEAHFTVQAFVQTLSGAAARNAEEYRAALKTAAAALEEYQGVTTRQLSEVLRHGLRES
As to the kind of experiment: EMSA; PprA 2 ug; EMSA: 0.2 pmol 32P probe in 10 ul, 10 mM Tris-HCl pH 7.5, 50 mM NaCl, 1 mM DTT, 10 min, 37 C; 12.5% native PAGE. The following applies: protein: recombinant; tags: His-tag removed with Factor Xa (pET28a); label: 32P (polynucleotide kinase, 5' end).

The next data set concerns the target T3, DrRecA (Deinococcus radiodurans R1 (ATCC 13939), UniProt P42443 1-363).
T3 sequence: T1 sequence (looked up)
The data set can be described thus: EMSA; no PprA; DrRecA 0.5-2 ug; EMSA: 0.2 pmol 32P probe in 10 ul, 10 mM Tris-HCl pH 7.5, 50 mM NaCl, 1 mM DTT, 10 min, 37 C; 12.5% native PAGE. As to conditions: protein: recombinant, tags: His-tag removed with Factor Xa (pET28a), label: 32P (polynucleotide kinase, 5' end).

Data set [3] has as its target T2, PprA. The data set can be described thus: EMSA; PprA 2 ug; band distinct from DrRecA-DNA; EMSA: 0.2 pmol 32P probe in 10 ul, 10 mM Tris-HCl pH 7.5, 50 mM NaCl, 1 mM DTT, 10 min, 37 C; 12.5% native PAGE. The following applies: protein: recombinant; tags: His-tag removed with Factor Xa (pET28a); label: 32P (polynucleotide kinase, 5' end); blunt.

The record followed here is paper PMC8093518, “PprA Protein Inhibits DNA Strand Exchange and ATP Hydrolysis of Deinococcus RecA and Regulates the Recombination in Gamma-Irradiated Cells” (Frontiers in Cell and Developmental Biology, 2021).

Where a chain is given by its changes, count along the chain named. In names and notes the source's numbering stands.

B1: Recombinant PprA, wild type, purified (natural protein, D. radiodurans, UniProt O32504 1-300, looked up)
chain: T2 sequence
notes: PprA of Deinococcus radiodurans, from plasmid pETpprA constructed earlier (Rajpurohit and Misra, 2013); His tag removed with Factor-Xa; also called PprA^wt; pETpprA; source: E. coli BL21(DE3) pLysS, purified (Ni-chelating Sepharose, Q-sepharose, Heparin, Superdex-200)
For B1, the binding result in data set [1] was “binds”.

B2: PprA R212A mutant (natural protein, D. radiodurans, UniProt O32504 1-300, looked up)
chain: T2 sequence with R212A
notes: PprA of Deinococcus radiodurans with R212A, made with a site-directed mutagenesis kit; also called oligomer mutant
With B2, the binding result in data set [1] was “binds”.

B3: PprA R166A mutant (natural protein, D. radiodurans, UniProt O32504 1-300, looked up)
chain: T2 sequence with R166A
notes: PprA of Deinococcus radiodurans with R166A, made with a site-directed mutagenesis kit
Take B3: the binding result in data set [1] is listed as “binds”.
With TAATACAAAATAAGTAAATGAATAAACAGAGAAAATAAAG (ssDNA) [Oligo40-F 40-mer ssDNA], the binding result was “no binding” with PprA [2] and “binds” with DrRecA.

B4: Oligo40-F/Oligo40-R 40-mer dsDNA (dsDNA)
DNA 1: TAATACAAAATAAGTAAATGAATAAACAGAGAAAATAAAG
DNA 2: CTTTATTTTCTCTGTTTATTCATTTACTTATTTTGTATTA
On to B4, for which the binding result in the data set with DrRecA (blunt) and with PprA [3] was “binds” each time.
